# T1: plasma-derived human activated protein C (APC) (UniProt P04070 43-461)
# T1 chain: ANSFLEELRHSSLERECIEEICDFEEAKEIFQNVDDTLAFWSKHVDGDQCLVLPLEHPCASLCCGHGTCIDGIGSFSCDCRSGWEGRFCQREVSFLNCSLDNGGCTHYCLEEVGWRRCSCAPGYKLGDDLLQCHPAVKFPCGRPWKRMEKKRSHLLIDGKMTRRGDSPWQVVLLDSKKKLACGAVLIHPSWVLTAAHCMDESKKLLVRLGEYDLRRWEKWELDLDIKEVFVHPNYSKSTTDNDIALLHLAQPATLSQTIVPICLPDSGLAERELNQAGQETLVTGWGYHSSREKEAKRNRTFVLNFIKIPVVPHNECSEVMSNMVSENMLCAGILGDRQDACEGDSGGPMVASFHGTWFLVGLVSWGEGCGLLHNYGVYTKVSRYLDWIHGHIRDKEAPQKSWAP
# Legend:
# [1] = target: T1, plasma-derived human activated protein …; experiment: SPR
# [2] = target: T1, plasma-derived human activated protein …; experiment: SPR
# [3] = target: T1, plasma-derived human activated protein …; experiment: SPR; head prints nM; kd/ka gives M
Binder,Kd [1] [nM],further results
"TPP-24875 (antibody, V domains shown) VL: DIVMTQSPLSLPVTPGEPASISCRSSQSVSSFGATFMHWYQQKPGQPPKLLIYLASNRASGVPDRFSGSGSGTDFTLTINPVEADDTANYYCQQNNEDPYTFGQGTKLEIK",47.7,–
"TPP-24869 (antibody, V domains shown) VL: DIVMTQSPLSLPVTPGEPASISCRSSESVDSFGATFMHWYLQKPGQSPQLLIYLASNRASGVPDRFSGSGSGTDFTLKISRVEAEDVGVYYCQQNNEDPYTFGQGTKLEIK",24.2,–
"TPP-24907 (antibody, V domains shown) VL: EIVLTQSPGTLSLSPGERATLSCRASQSVSSFGATFMHWYQQKPGQPPKLLIYLASNRASGVPDRFSGSGSGTDFTLTINPVEADDTANYYCQQNNEDPYTFGQGTKLEIK",45.9,–
"TPP-24847 (antibody, V domains shown) VL: DIVLTQSPASLAVSPGQRATITCKASQSVSSFGATFMHWYLQKPGQSPQLLIYLASNLESGVPARFSGSGSGTDFTLTINPVEADDTANYYCQQNNEDPYTFGQGTKLEIK",85.5,–
"TPP-24833 (antibody, V domains shown) VL: DIVLTQSPASLAVSPGQRATITCKASESVDSFGATFMHWYLQKPGQSPQLLIYLASNLESGVPARFSGSGSGTDFTLKISRVEAEDVGVYYCQQNNEDPYTFGQGTKLEIK",49,–
"TPP-24841 (antibody, V domains shown) VL: DIVLTQSPASLAVSPGQRATITCKASQSVSSFGATFMHWYQQKPGQPPKLLIYLASNLESGVPARFSGSGSGTDFTLKISRVEAEDVGVYYCQQNNEDPYTFGQGTKLEIK",93.2,–
"TPP-24827 (antibody, V domains shown) VL: DIVLTQSPASLAVSPGQRATITCKASESVDSFGATFMHWYQQKPGQPPKLLIYLASNRASGVPDRFSGSGSGTDFTLTINPVEADDTANYYCQQNNEDPYTFGQGTKLEIK",31.7,–
"TPP-24853 (antibody, V domains shown) VL: DIVLTQSPASLAVSPGQRATITCKASQSVSSFGATFMHWYLQKPGQSPQLLIYLASNRASGVPDRFSGSGSGTDFTLKISRVEAEDVGVYYCQQNNEDPYTFGQGTKLEIK",51.5,–
"TPP-24851 (antibody, V domains shown) VL: DIVLTQSPASLAVSPGQRATITCKASQSVSSFGATFMHWYLQKPGQSPQLLIYLASNRASGVPDRFSGSGSGTDFTLTINPVEADDTANYYCQQNNEDPYTFGQGTKLEIK",49.8,–
"TPP-24843 (antibody, V domains shown) VL: DIVLTQSPASLAVSPGQRATITCKASQSVSSFGATFMHWYQQKPGQPPKLLIYLASNRASGVPDRFSGSGSGTDFTLTINPVEADDTANYYCQQNNEDPYTFGQGTKLEIK",48.6,–
"TPP-24913 (antibody, V domains shown) VL: EIVLTQSPGTLSLSPGERATLSCRASQSVSSFGATFMHWYLQKPGQSPQLLIYLASNLESGVPARFSGSGSGTDFTLKISRVEAEDVGVYYCQQNNEDPYTFGQGTKLEIK",85.6,–
"TPP-24897 (antibody, V domains shown) VL: EIVLTQSPGTLSLSPGERATLSCRASESVDSFGATFMHWYLQKPGQSPQLLIYLASNLESGVPARFSGSGSGTDFTLKISRVEAEDVGVYYCQQNNEDPYTFGQGTKLEIK",47.9,–
"TPP-24911 (antibody, V domains shown) VL: EIVLTQSPGTLSLSPGERATLSCRASQSVSSFGATFMHWYLQKPGQSPQLLIYLASNLESGVPARFSGSGSGTDFTLTINPVEADDTANYYCQQNNEDPYTFGQGTKLEIK",43.2,–
"TPP-24901 (antibody, V domains shown) VL: EIVLTQSPGTLSLSPGERATLSCRASESVDSFGATFMHWYLQKPGQSPQLLIYLASNRASGVPDRFSGSGSGTDFTLKISRVEAEDVGVYYCQQNNEDPYTFGQGTKLEIK",26.9,–
"TPP-24909 (antibody, V domains shown) VL: EIVLTQSPGTLSLSPGERATLSCRASQSVSSFGATFMHWYQQKPGQPPKLLIYLASNRASGVPDRFSGSGSGTDFTLKISRVEAEDVGVYYCQQNNEDPYTFGQGTKLEIK",46.2,–
"TPP-24917 (antibody, V domains shown) VL: EIVLTQSPGTLSLSPGERATLSCRASQSVSSFGATFMHWYLQKPGQSPQLLIYLASNRASGVPDRFSGSGSGTDFTLKISRVEAEDVGVYYCQQNNEDPYTFGQGTKLEIK",44.6,–
"TPP-24893 (antibody, V domains shown) VL: EIVLTQSPGTLSLSPGERATLSCRASESVDSFGATFMHWYQQKPGQPPKLLIYLASNRASGVPDRFSGSGSGTDFTLKISRVEAEDVGVYYCQQNNEDPYTFGQGTKLEIK",28.6,–
"TPP-24829 (antibody, V domains shown) VL: DIVLTQSPASLAVSPGQRATITCKASESVDSFGATFMHWYQQKPGQPPKLLIYLASNRASGVPDRFSGSGSGTDFTLKISRVEAEDVGVYYCQQNNEDPYTFGQGTKLEIK",31.3,–
"TPP-24845 (antibody, V domains shown) VL: DIVLTQSPASLAVSPGQRATITCKASQSVSSFGATFMHWYQQKPGQPPKLLIYLASNRASGVPDRFSGSGSGTDFTLKISRVEAEDVGVYYCQQNNEDPYTFGQGTKLEIK",54,–
"TPP-24861 (antibody, V domains shown) VL: DIVMTQSPLSLPVTPGEPASISCRSSESVDSFGATFMHWYQQKPGQPPKLLIYLASNRASGVPDRFSGSGSGTDFTLKISRVEAEDVGVYYCQQNNEDPYTFGQGTKLEIK",24.1,–
"TPP-26935 (antibody, V domains shown) VH: EVQLVESGGGLVQPGGSLRLSCAASGFTFSNYYINWVRQAPGKGLEWVGDIRLKSNNYEKHYAESVKGRFTISRDDSKNSLYLQMNSLKTEDTAVYYCAREGDYFDYWGQGTLVTVSS VL: EIVLTQSPGTLSLSPGERATLSCRASQSVSSFGATFMHWYQQKPGQPPKLLIYLASNRASGVPDRFSGSGSGTDFTLKISRVEAEDVGVYYCQQNNEDPYTFGQGTKLEIKR",–,Kd [2]: 18.6 nM
"TPP-29865 (antibody, V domains shown) VH: EVQLVESGGGLVQPGGSLRLSCAASGFTFSNYYFNWVRQAPGKGLEWVSYISSSSSTIYYADSVKGRFTISRDDSKNSLYLQMNSLKTEDTAVYYCAREGDYFDYWGQGTLVTVSS VL: EIVLTQSPGTLSLSPGERATLSCRASQSVSSFGATFMHWYQQKPGQPPKLLIYLASNRASGVPDRFSGSGSGTDFTLKISRVEAEDVGVYYCQQNNEDPYTFGQGTKLEIKR",–,Kd [3]: 12.7 nM
"TPP-29858 (antibody, V domains shown) VH: EVQLVESGGGLVQPGGSLRLSCAASGFTFSNYYMNWVRQAPGKGLEWVSYISSSSSTIYYADSVKGRFTISRDDSKNSLYLQMNSLKTEDTAVYYCAREGDYFDYWGQGTLVTVSS VL: EIVLTQSPGTLSLSPGERATLSCRASQSVSSFGATFMHWYQQKPGQPPKLLIYLARNRASGVPDRFSGSGSGTDFTLKISRVEAEDVGVYYCQQNNEDPYTFGQGTKLEIKR",–,Kd [3]: 24.9 nM
"TPP-26921 (antibody, V domains shown) VH: EVQLVESGGGLVQPGGSLRLSCAASGFTFSNYYMSWVRQAPGKGLEWVGDIRLKSNNYEKHYAESVKGRFTISRDDSKNSLYLQMNSLKTEDTAVYYCAREGDYFDYWGQGTLVTVSS VL: EIVLTQSPGTLSLSPGERATLSCRASQSVSSFGATFMHWYQQKPGQPPKLLIYLASNRASGVPDRFSGSGSGTDFTLTINPVEADDTANYYCQQNNEDPYTFGQGTKLEIKR",–,Kd [2]: 31.1 nM
"TPP-26918 (antibody, V domains shown) VH: EVQLVESGGGLVQPGGSLRLSCAASGFTFSNYYMSWVRQAPGKGLEWVGDIRLKSNNYEKHYAESVKGRFTISRDDSKNSLYLQMNSLKTEDTAVYYCAREGDYFDYWGQGTLVTVSS VL: DIVLTQSPASLAVSPGQRATITCKASESVDSFGATFMHWYQQKPGQPPKLLIYLASNRASGVPDRFSGSGSGTDFTLKISRVEAEDVGVYYCQQNNEDPYTFGQGTKLEIKR",–,Kd [2]: 13.4 nM
"TPP-26925 (antibody, V domains shown) VH: EVQLVESGGGLVQPGGSLRLSCAASGFTFSNYYMSWVRQAPGKGLEWVGDIRLKSNNYEKHYAESVKGRFTISRDDSKNSLYLQMNSLKTEDTAVYYCAREGDYFDYWGQGTLVTVSS VL: DIVLTQSPASLAVSPGQRATITCKASQSVSSFGATFMHWYLQKPGQSPQLLIYLASNRASGVPDRFSGSGSGTDFTLKISRVEAEDVGVYYCQQNNEDPYTFGQGTKLEIKR",–,Kd [2]: 27.9 nM
"TPP-26871 (antibody, V domains shown) VH: EVQLVESGGGLVQPGGSLRLSCAASGFTFSNYYMNWVRQAPGKGLEWVSYISSSSSTIYYADSVKGRFTISRDDSKNSLYLQMNSLKTEDTAVYYCAREGDYFDYWGQGTLVTVSS VL: DIVLTQSPASLAVSPGQRATITCKASQSVSSFGATFMHWYQQKPGQPPKLLIYLASNRASGVPDRFSGSGSGTDFTLTINPVEADDTANYYCQQNNEDPYTFGQGTKLEIKR",–,Kd [2]: 13.8 nM
"TPP-26873 (antibody, V domains shown) VH: EVQLVESGGGLVQPGGSLRLSCAASGFTFSNYYMNWVRQAPGKGLEWVSYISSSSSTIYYADSVKGRFTISRDDSKNSLYLQMNSLKTEDTAVYYCAREGDYFDYWGQGTLVTVSS VL: DIVLTQSPASLAVSPGQRATITCKASQSVSSFGATFMHWYLQKPGQSPQLLIYLASNRASGVPDRFSGSGSGTDFTLKISRVEAEDVGVYYCQQNNEDPYTFGQGTKLEIKR",–,Kd [2]: 11.2 nM

# — patent publication US20250188189A1 (published 2025)
